Experimental data taken from patent publication US20150344583A1.

Biological target: human BCMA (huBCMA) on cells (human) (UniProt Q02223)
Test: FACS, H929 cells, negative control

Sequence of human BCMA (huBCMA) on cells (human) (Q02223 whole entry N81S): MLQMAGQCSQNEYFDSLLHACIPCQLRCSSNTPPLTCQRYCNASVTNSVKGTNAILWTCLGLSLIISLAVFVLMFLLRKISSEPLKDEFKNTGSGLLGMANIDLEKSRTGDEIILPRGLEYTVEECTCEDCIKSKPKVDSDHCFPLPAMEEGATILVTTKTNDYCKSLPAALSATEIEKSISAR

Question: hu IgG1 (antibody) was tested. Which MFI did it give?
Answer: 8 MFI
